This experiment concerns the target Sudan virus Boniface (SUDV-Bon) glycoprotein GP1,2, mucin-like domain and transmembrane domain delet (Sudan virus, variant Boniface) (UniProt Q66814). Put plainly: crystal structure.

For orientation: stoichiometry N means a count of units in the complex or per binding partner. “Sudan virus Boniface (SUDV-Bon) glycoprotein GP1,2, mucin-like domain and transmembrane domain delet (from UniProt Q66814) (complex)” registered a stoichiometry N of 3.

The record behind these values is paper PMC3347318.
